The source of these data is the supplement of paper PMC5998384.

In data set [1] the test system is HeLa Kyoto. The data set can be described thus: solubility change mitosis vs G1/S (difference of NP-40 vs SDS log2 ratios) (log2 ratio difference); higher = more soluble in mitosis.
Data set [2] deals with HeLa Kyoto. The data set can be described thus: solubility in G1/S (NP-40 vs SDS abundance) (log2 ratio); higher = more soluble. The conditions noted are these: cell cycle stage: G1/S.
Data set [3] has as its system HeLa Kyoto. The data set can be described thus: melting temperature (median over replicates), in situ; higher = more thermally stable.
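For melting temperature (median over replicates), in situ in this document: HeLa Kyoto cells synchronized by double thymidine or nocodazole block, proteins quantified by TMT10plex mass spectrometry, three independent biological replicates.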
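For solubility change mitosis vs G1/S (difference of NP-40 vs SDS log2 ratios) in this document: synchronized HeLa Kyoto cells (double thymidine block for G1/S, nocodazole release for mitosis), protein amounts in NP-40 versus SDS lysates quantified by mass spectrometry, three biological replicates.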
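For solubility in G1/S (NP-40 vs SDS abundance) in this document: HeLa Kyoto cells arrested at G1/S by double thymidine block, proteins quantified by TMT10plex mass spectrometry in mild NP-40 versus SDS extracts, three biological replicates.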

Take “MQTSSSRSVHLSEWQKNYFAITSGICTGPKADAYRAQILRIQYAWANSEISQVCATKLFKKYAEKYSAIIDSDNVESGLNNYAENILTLAGSQQTDSDKWQSGLSINNVFKMSSVQKMMQAGKKFKDSLLEPALASVVIHKEATVFDLPKFSVCGSSQESDSLPNSAHDRDRTQDFPESNRLKLLQNAQPPMVTNTARTCPTFSAPVGESATAKFHVTPLFGNVKKENHSSAKENIGLNVFLSNQSCFPAACENPQRKSFYGSGTIDALSNPILNKACSKTEDNGPKEDSSLPTFKTAKEQLWVDQQKKYHQPQRASGSSYGGVKKSLGASRSRGILGKFVPPIPKQDGGEQNGGMQCKPYGAGPTEPAHPVDERLKNLEPKMIELIMNEIMDHGPPVNWEDIAGVEFAKATIKEIVVWPMLRPDIFTGLRGPPKGILLFGPPGTGKTLIGKCIASQSGATFFSISASSLTSKWVGEGEKMVRALFAVARCQQPAVIFIDEIDSLLSQRGDGEHESSRRIKTEFLVQLDGATTSSEDRILVVGATNRPQEIDEAARRRLVKRLYIPLPEASARKQIVINLMSKEQCCLSEEEIEQIVQQSDAFSGADMTQLCREASLGPIRSLQTADIATITPDQVRPIAYIDFENAFRTVRPSVSPKDLELYENWNKTFGCGK [FIGNL1]”: the “solubility change mitosis (log2)” value in the data set with HeLa Kyoto [1] was -0.219. Moreover, the “solubility in G1/S (log2)” value in the data set on HeLa Kyoto [2] was -0.0197. This sequence returned a melting temperature in the data set with HeLa Kyoto [3] (cell cycle stage: mitosis) of 48.6 °C.
In the case of “MRRFKRKHLTAIDCQHLARSHLAVTQPFGQRWTNRDPNHGLYPKPRTKRGSRGQGSQRCIPEFFLAGKQPCTNDMAKSNSVGQDSCQDSEGDMIFPAESSCALPQEGSAGPGSPGSAPPSRKRSWSSEEESNQATGTSRWDGVSKKAPRHHLSVPCTRPREARQEAEDSTSRLSAESGETDQDAGDVGPDPIPDSYYGLLGTLPCQEALSHICSLPSEVLRHVFAFLPVEDLYWNLSLVCHLWREIISDPLFIPWKKLYHRYLMNEEQAVSKVDGILSNCGIEKESDLCVLNLIRYTATTKCSPSVDPERVLWSLRDHPLLPEAEACVRQHLPDLYAAAGGVNIWALVAAVVLLSSSVNDIQRLLFCLRRPSSTVTMPDVTETLYCIAVLLYAMREKGINISNRIHYNIFYCLYLQENSCTQATKVKEEPSVWPGKKTIQLTHEQQLILNHKMEPLQVVKIMAFAGTGKTSTLVKYAEKWSQSRFLYVTFNKSIAKQAERVFPSNVICKTFHSMAYGHIGRKYQSKKKLNLFKLTPFMVNSVLAEGKGGFIRAKLVCKTLENFFASADEELTIDHVPIWCKNSQGQRVMVEQSEKLNGVLEASRLWDNMRKLGECTEEAHQMTHDGYLKLWQLSKPSLASFDAIFVDEAQDCTPAIMNIVLSQPCGKIFVGDPHQQIYTFRGAVNALFTVPHTHVFYLTQSFRFGVEIAYVGATILDVCKRVRKKTLVGGNHQSGIRGDAKGQVALLSRTNANVFDEAVRVTEGEFPSRIHLIGGIKSFGLDRIIDIWILLQPEEERRKQNLVIKDKFIRRWVHKEGFSGFKRYVTAAEDKELEAKIAVVEKYNIRIPELVQRIEKCHIEDLDFAEYILGTVHKAKGLEFDTVHVLDDFVKVPCARHNLPQLPHFRVESFSEDEWNLLYVAVTRAKKRLIMTKSLENILTLAGEYFLQAELTSNVLKTGVVRCCVGQCNNAIPVDTVLTMKKLPITYSNRKENKGGYLCHSCAEQRIGPLAFLTASPEQVRAMERTVENIVLPRHEALLFLVF [FBXO18]”, in the data set with HeLa Kyoto [1], the “solubility change mitosis (log2)” value is -0.0335. Also, the “solubility in G1/S (log2)” value in the data set on HeLa Kyoto [2] was -0.21. The melting temperature in the data set on HeLa Kyoto [3] (cell cycle stage: G1/S) turned out to be 51.7 °C; in the data set on HeLa Kyoto [3] (cell cycle stage: mitosis), 52.4 °C.
For the sequence “MRRYLRVVVLCVACGFCSLLYAFSQLAVSLEEGTGGGGGKPQAAVASWLAGGGRGAVRGAGVAGPAAHPGVSDRCKDFSLCYWNPYWMLPSDVCGMNCFWEAAFRYSLKIQPVEKMHLAVVACGERLEETMTMLKSAIIFSIKPLQFHIFAEDQLHHSFKGRLDNWSFLQTFNYTLYPITFPSENAAEWKKLFKPCASQRLFLPLILKEVDSLLYVDTDILFLRPVDDIWSLLKKFNSTQIAAMAPEHEEPRIGWYNRFARHPYYGKTGVNSGVMLMNMTRMRRKYFKNDMTTVRLQWGDILMPLLKKYKLNITWGDQDLLNIVFFHNPESLFVFPCQWNYRPDHCIYGSNCQEAEEGGIFILHGNRGVYHDDKQPAFRAVYEALRNCSFEDDNIRSLLKPLELELQKTVHTYCGKIYKIFIKQLAKSVRDRYARSPKEK [GXYLT1]”, the “solubility change mitosis (log2)” value with HeLa Kyoto [1] was found to be 0.0753. For the same sequence, in the data set with HeLa Kyoto [2], the “solubility in G1/S (log2)” value worked out at 0.171. In addition, the melting temperature in the data set with HeLa Kyoto [3] (cell cycle stage: G1/S) worked out at 53.9 °C.
Consider “MSAGGSARKSTGRSSYYYRLLRRPRLQRQRSRSRSRTRPARESPQERPGSRRSLPGSLSEKSPSMEPSAATPFRVTGFLSRRLKGSIKRTKSQPKLDRNHSFRHILPGFRSAAAAAADNERSHLMPRLKESRSHESLLSPSSAVEALDLSMEEEVVIKPVHSSILGQDYCFEVTTSSGSKCFSCRSAAERDKWMENLRRAVHPNKDNSRRVEHILKLWVIEAKDLPAKKKYLCELCLDDVLYARTTGKLKTDNVFWGEHFEFHNLPPLRTVTVHLYRETDKKKKKERNSYLGLVSLPAASVAGRQFVEKWYPVVTPNPKGGKGPGPMIRIKARYQTITILPMEMYKEFAEHITNHYLGLCAALEPILSAKTKEEMASALVHILQSTGKVKDFLTDLMMSEVDRCGDNEHLIFRENTLATKAIEEYLKLVGQKYLQDALGEFIKALYESDENCEVDPSKCSAADLPEHQGNLKMCCELAFCKIINSYCVFPRELKEVFASWRQECSSRGRPDISERLISASLFLRFLCPAIMSPSLFNLLQEYPDDRTARTLTLIAKVTQNLANFAKFGSKEEYMSFMNQFLEHEWTNMQRFLLEISNPETLSNTAGFEGYIDLGRELSSLHSLLWEAVSQLEQSIVSKLGPLPRILRDVHTALSTPGSGQLPGTNDLASTPGSGSSSISAGLQKMVIENDLSGLIDFTRLPSPTPENKDLFFVTRSSGVQPSPARSSSYSEANEPDLQMANGGKSLSMVDLQDARTLDGEAGSPAGPDVLPTDGQAAAAQLVAGWPARATPVNLAGLATVRRAGQTPTTPGTSEGAPGRPQLLAPLSFQNPVYQMAAGLPLSPRGLGDSGSEGHSSLSSHSNSEELAAAAKLGSFSTAAEELARRPGELARRQMSLTEKGGQPTVPRQNSAGPQRRIDQPPPPPPPPPPAPRGRTPPNLLSTLQYPRPSSGTLASASPDWVGPSTRLRQQSSSSKGDSPELKPRAVHKQGPSPVSPNALDRTAAWLLTMNAQLLEDEGLGPDPPHRDRLRSKDELSQAEKDLAVLQDKLRISTKKLEEYETLFKCQEETTQKLVLEYQARLEEGEERLRRQQEDKDIQMKGIISRLMSVEEELKKDHAEMQAAVDSKQKIIDAQEKRIASLDAANARLMSALTQLKERYSMQARNGISPTNPTKLQITENGEFRNSSNC [DAB2IP]”, for which the “solubility change mitosis (log2)” value with HeLa Kyoto [1] was found to be 0.0598. Further, the “solubility in G1/S (log2)” value in the data set on HeLa Kyoto [2] turned out to be 0.117. Moreover, the melting temperature in the data set with HeLa Kyoto [3] (cell cycle stage: G1/S) was 49.5 °C; in the data set with HeLa Kyoto [3] (cell cycle stage: mitosis), 51 °C.
